Non-standard residues stand in square brackets, D forms with d. No end group written: not given here. *: point of attachment. Biotin = O=C1N[C@H]2[C@H](CS[C@H]2CCCCC(=O)*)N1; Orn = NCCC[C@H](N)C(=O)O; βAla = NCCC(=O)O
Tests used:
[1] = target: T1, full-length Flag-CHD4 (chromodomain helicase DNA-binding protein 4) (UniProt Q14839 1-1912); experiment: peptide pull-down: 100 nM purified Flag-CHD4 with 1 µg N-biotinylated peptide, anti-Flag immunoblot
T1 construct: FLAG-tagged, made in recombinant baculovirus infected Sf9 cells and purified on Flag-agarose; also called purified CHD4; full-length CHD4

[2] = target: T1, full-length Flag-CHD4 (chromodomain …); experiment: BLI, biotinylated peptide on streptavidin tips, full-length Flag-CHD4 at 0-50 nM in solution
[3] = target: T2, CHD4 (endogenous, in PEL cells BC3 / BCBL-1) (UniProt Q14839 1-1912); experiment: streptavidin pull-down from BC3 cells incubated with 10 µM biotinylated peptide, anti-CHD4 immunoblot
T2 construct: Cellular protein in treated cells and their lysates

[4] = target: T1, full-length Flag-CHD4 (chromodomain …); experiment: ELISA, plate coated with 1 µM biotinylated VGN73, Flag-CHD4 protein titrated, OD 450 nm
685-1245 = target: T3, 685-1245; experiment: ELISA, plate coated with 1 µM biotinylated VGN73, Flag-CHD4 deletion protein titrated, OD 450 nm
T3 construct: Member of the group m7; The map draws it with the ATPase and C-terminal helicase boxes only, without PHD; also called Flag-CHD4 deletion protein 685-1245

1250-1912 = target: T4, 1250-1912; experiment: as above
T4 construct: Member of the group m7; The map draws it with the two DUF domains and CHDCT2, without PHD; also called Flag-CHD4 deletion protein 1250-1912

1531-1912 = target: T5, 1531-1912; experiment: as above
T5 construct: Member of the group m7; The map draws it with CHDCT2 only, without PHD; also called Flag-CHD4 deletion protein 1531-1912

T1 sequence (Q14839 whole entry): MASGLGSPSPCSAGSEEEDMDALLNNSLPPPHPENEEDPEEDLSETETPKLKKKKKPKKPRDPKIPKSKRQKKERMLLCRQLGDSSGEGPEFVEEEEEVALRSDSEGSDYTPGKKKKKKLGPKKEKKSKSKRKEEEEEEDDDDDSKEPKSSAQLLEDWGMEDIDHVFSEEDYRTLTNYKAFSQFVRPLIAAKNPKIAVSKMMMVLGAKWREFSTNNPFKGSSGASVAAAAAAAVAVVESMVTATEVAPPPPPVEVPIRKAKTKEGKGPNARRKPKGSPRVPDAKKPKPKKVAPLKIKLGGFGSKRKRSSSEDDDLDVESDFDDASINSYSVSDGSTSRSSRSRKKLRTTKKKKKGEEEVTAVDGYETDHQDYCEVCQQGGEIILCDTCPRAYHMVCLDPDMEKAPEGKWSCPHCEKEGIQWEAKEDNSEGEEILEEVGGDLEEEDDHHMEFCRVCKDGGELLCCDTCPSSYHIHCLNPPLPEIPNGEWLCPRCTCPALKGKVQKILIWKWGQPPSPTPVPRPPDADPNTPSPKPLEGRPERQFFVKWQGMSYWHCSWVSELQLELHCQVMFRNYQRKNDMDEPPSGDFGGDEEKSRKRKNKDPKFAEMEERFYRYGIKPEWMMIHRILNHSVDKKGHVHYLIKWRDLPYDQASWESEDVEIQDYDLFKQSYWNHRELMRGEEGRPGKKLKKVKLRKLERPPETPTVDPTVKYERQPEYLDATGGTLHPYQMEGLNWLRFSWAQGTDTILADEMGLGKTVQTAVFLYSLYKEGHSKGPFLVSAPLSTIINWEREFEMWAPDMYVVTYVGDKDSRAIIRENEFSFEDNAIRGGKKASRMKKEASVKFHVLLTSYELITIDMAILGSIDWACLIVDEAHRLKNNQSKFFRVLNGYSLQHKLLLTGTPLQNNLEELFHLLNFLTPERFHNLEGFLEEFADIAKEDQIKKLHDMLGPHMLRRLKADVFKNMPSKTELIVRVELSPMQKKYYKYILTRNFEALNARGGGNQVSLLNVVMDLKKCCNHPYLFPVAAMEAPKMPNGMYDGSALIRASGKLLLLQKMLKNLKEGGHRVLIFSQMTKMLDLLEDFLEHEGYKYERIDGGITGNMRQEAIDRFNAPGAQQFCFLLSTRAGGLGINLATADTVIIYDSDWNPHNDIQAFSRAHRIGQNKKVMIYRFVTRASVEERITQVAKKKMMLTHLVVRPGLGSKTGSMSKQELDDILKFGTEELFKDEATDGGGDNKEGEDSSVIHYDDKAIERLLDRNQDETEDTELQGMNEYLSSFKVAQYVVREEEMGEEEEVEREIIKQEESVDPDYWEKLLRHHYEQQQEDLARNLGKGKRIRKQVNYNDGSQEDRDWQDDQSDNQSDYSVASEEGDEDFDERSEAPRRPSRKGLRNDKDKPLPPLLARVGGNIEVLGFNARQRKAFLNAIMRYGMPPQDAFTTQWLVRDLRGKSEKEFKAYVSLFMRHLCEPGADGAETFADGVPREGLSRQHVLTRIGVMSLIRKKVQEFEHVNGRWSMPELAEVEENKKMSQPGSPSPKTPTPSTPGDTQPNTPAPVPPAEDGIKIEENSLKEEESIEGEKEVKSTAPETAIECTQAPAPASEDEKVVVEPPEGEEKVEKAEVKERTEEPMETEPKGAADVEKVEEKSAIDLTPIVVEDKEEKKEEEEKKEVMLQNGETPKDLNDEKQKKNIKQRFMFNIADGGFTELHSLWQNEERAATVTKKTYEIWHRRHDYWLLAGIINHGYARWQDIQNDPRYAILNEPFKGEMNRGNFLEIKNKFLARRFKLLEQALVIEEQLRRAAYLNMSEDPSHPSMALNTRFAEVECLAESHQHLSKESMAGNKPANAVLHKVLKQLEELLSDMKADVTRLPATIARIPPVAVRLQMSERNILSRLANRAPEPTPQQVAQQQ
T2 sequence (Q14839 whole entry): as above

B1: #5 (peptide)
peptide: Biotin-IASSPPGDNTPDDDPQPGPSREYR
notes: also called N-Biotin LANA peptide 5; KSHV LANA 922-945
- binding result [1]: no binding (tested: 1 µg peptide with 100 nM CHD4)

B2: #2 (peptide)
peptide: Biotin-EEVEEQEQQGVEQQEQETVEE
notes: also called N-Biotin LANA peptide 2; KSHV LANA 876-896 as printed
- binding result [1]: no binding (tested: 1 µg peptide with 100 nM CHD4)

B3: modified TAT peptide (peptide)
peptide: RKKRRXRRRA
modifications: d-Arg at position 1; ornithine (ORN) at position 6; beta-alanine at position 10; N-terminal biotin in BLI
notes: also called TAT alone; biotinylated TAT peptide
- binding result [2]: no binding (tested: 50 nM)
- binding result [3]: no binding (tested: 10 µM)

B4: #4 (peptide)
peptide: Biotin-EDEMEVDYPVVSTHEQIASSPPG
notes: also called N-Biotin LANA peptide 4; KSHV LANA 906-928
- binding result [1]: no binding (tested: 1 µg peptide with 100 nM CHD4)

B5: #8 (peptide)
peptide: Biotin-QPPVPYRQIDDCPAKARPQHIFYR
notes: also called N-Biotin LANA peptide 8; KSHV LANA 977-1000
- binding result [1]: no binding (tested: 1 µg peptide with 100 nM CHD4)

B6: #1 (peptide)
peptide: Biotin-EQELEEVEEQEEQELEEVEEQEQ
notes: also called N-Biotin LANA peptide 1; KSHV LANA 872-894 as printed
- binding result [1]: no binding (tested: 1 µg peptide with 100 nM CHD4)

Binder: [dR]KKRR[Orn]RRR[βAla]AKHAVISAGNDPYGLKK (also: N-terminal biotin only in BLI form) [VGN73 mutant peptide (TAT-VGN73 mutant fusion peptide)]
- binding result [2]: no binding (tested: 50 nM)
- binding result [3]: no binding (tested: 10 µM)

B7: VGN73 (TAT-VGN73 fusion peptide) (peptide)
peptide: [dR]KKRR[Orn]RRR[βAla]WKHAVIFWGNDPYGLKK
modifications: also: N-terminal biotin only in ELISA, BLI and pull-down forms
notes: Used without biotin in cell treatment assays; also called LANA peptide; cell-penetrating LANA peptide
- EC50 (read off the curve) [4]: ~10 nM
- binding result (685-1245): no binding (tested: 100 nM)
- binding result (1250-1912): no binding (tested: 100 nM)
- binding result (1531-1912): no binding (tested: 100 nM)

B8: #3 (peptide)
peptide: Biotin-ETVEEPIILHGSSSEDEMEVDYP
notes: also called N-Biotin LANA peptide 3; KSHV LANA 892-914
- binding result [1]: no binding (tested: 1 µg peptide with 100 nM CHD4)

From patent publication US20250282834A1 (University of California, published 2025)
